# From patent EP1173480B1 (Neurochem (International) Limited, dated 2008)
# Non-standard residues stand in square brackets, D forms with d. No end group written: not given here.
# Target: Aβ(1-40), naturally occurring all-[L] isomer (UniProt P05067 672-711)
# Assay: cell-based or functional assay
# Chain of Aβ(1-40), naturally occurring all-[L] isomer (P05067 672-711 limits assumed): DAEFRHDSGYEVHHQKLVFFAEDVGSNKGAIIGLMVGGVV
Binder,"order of potency as inhibitor of Aβ(1-40) fibril formation, thioflavin T fluorescence, peptide tested at 20µM (1 = strongest) [rank]","order of potency as inhibitor of Aβ(1-40) fibril formation, thioflavin T fluorescence, peptide tested at 80µM (1 = strongest) [rank]"
[dK][dL][dV][dF] [all-[D] Lys-Leu-Val-Phe],6,9
KLVFFA [all-[L] Lys-Leu-Val-Phe-Phe-Ala],8,8
KKLVFFA [all-[L] Lys-Lys-Leu-Val-Phe-Phe-Ala],10,7
AFFVLK (not fully specified) [all-[L] Ala-Phe-Phe-Val-Leu-Lys],11,11
[dK][dL][dV][dF][dF] [all-[D] Lys-Leu-Val-Phe-Phe],9,10
[dK][dA][dV][dF][dF][dA] [all-[D] Lys-Ala-Val-Phe-Phe-Ala],7,6
[dA][dF][dF][dV][dL][dK] [all-[D] Ala-Phe-Phe-Val-Leu-Lys (retro-isomer)],5,1
[dK][dF][dV][dF][dF][dA] [all-[D] Lys-Phe-Val-Phe-Phe-Ala],4,1
[dK][dL][dV][dF][dF][dA] [all-[D] Lys-Leu-Val-Phe-Phe-Ala],3,1
[dK][dK][dL][dV][dF][dF][dA] [all-[D] Lys-Lys-Leu-Val-Phe-Phe-Ala],2,1
[dK][dI][dV][dF][dF][dA] [all-[D] Lys-Ile-Val-Phe-Phe-Ala],1,5
